Test results taken from patent US20130252987A1, “METHOD OF REGULATING PLASMA LIPOPROTEINS” (MCMASTER UNIVERSITY, priority 2010, published 2013).

How the values were obtained:
Format in all cases: cell-based, human
HepG2 cells [1] = experiment: electron microscopy of secreted VLDL fraction; settings: 50 ng/mL, 24 hours
Protocol: The VLDL lipoprotein fraction was isolated from HepG2 cell media via ultracentrifugation at density of 1.006 g/mL using a Beckman Optima TL ultracentrifuge and 100.4 TLA rotor (Beckman Coulter, Brea, Calif.). Mean particle size for VLDL was then determined using the Hitachi 7000 electron microscope equipped with a AMT XR-60 digital camera. The fixation process for electron microscopy utilized 1% Os04 in a phosphate buffer at pH 7.4 applied to the VLDL fraction for a 30 minute exposure. A small drop of this solution was placed on a 400 mesh copper grid coated with a carbon film and allowed to stand for 3 minutes or until sample has dried. The fixed VLDL were placed on the electron microscope grid for viewing and digitizing. The captured images were taken at 75 KV using a beam current of 25 uA. Digital Images of the VDL were taken at about 50,000×. The mean particle size was then determined by importing the digital images into NIH image J software.
The secretion of apoB protein by HepG2 cells increased markedly by approximately 8-fold with human resistin treatment, along with the observed increases in secreted VLDL lipids. […] Furthermore, the quantity of VLDL particles found in a representative […] area was increased markedly in resistin-treated samples by a mean of 10-fold.

HepG2 cells [2] = experiment: apoB and apolipoprotein expression and secretion, immunoprecipitation and Western blot
Protocol: During experiments in which HepG2 cells were treated with human recombinant resistin (Calbiochem, UK) the media was changed to 1% FBS-containing DMEM. […] In separate experiments, cells were treated with the fatty acid, oleate (100 μM) (Sigma, ON) for 24 hours, with or without human resistin (50 ng/mL) for 24 hours. In other experiments, cells were treated with the 10 μM lactacystin (Cayman Chemical, Ann Arbor, Mich.) for 24 hours to assess intracellular proteosome-dependent apoB protein degradation.
Horseradish peroxidase-conjugated antibodies (BioRad, Hercules, Calif.) were used as secondary antibodies.
All of the experiments to follow were performed three times and representative results are shown. […] Immunoprecipitation on cell lysates and media, followed by Western blots to detect the cellular expression and secretion of human apoB protein were then performed. The constitutively expressed cellular proteins, beta-actin and albumin were used as internal immunoblot controls to confirm equal protein loading in the apoB immunoblots of cell lysates and media, respectively. […] Treatment with 25 ng/mL resistin further stimulated apoB secretion by approximately 250% compared with untreated cells (FIG. 1A).

[3] = tested on: microsomal triglyceride transfer protein (MTP); experiment: MTP protein expression and activity assay; settings: 50 ng/mL, 24 hours, HepG2 cells
Protocol: Cell monolayers were washed twice with ice-cold PBS and once with 5 ml of 1 mM Tris-HCl, pH 7.6, 1 mM EGTA, and 1 mM MgCl2 at 4° C. Cells were then incubated for 2 min at room temperature in 5 ml of ice-cold 1 mM Tris-HCl, pH 7.6, 1 mM EGTA, and 1 mM MgCl2. The buffer was aspirated, and 0.5 ml of the same buffer was added to cells. Cells were scraped and collected in ice-cold tubes, vortexed, and centrifuged (SW55 Ti rotor, 50,000 rpm, 10° C., 1 h), and supernatants were used for MTP assay using the MTP fluorometric activity assay kit (Chylos Inc., NY). The triglyceride transfer activity of MTP is presented as % transfer/h/mg protein.
Further tests were conducted to investigate mechanisms by which human resistin stimulated increased hepatocyte expression and secretion of apoB protein. […] It was first determined whether human resistin inhibits apoB degradation through the classic proteosome-dependent degradation pathway by adding the optimal dose of human resistin (50 ng/mL) to the proteosome-dependent inhibitor of apoB degradation, lactacystin, at the optimal dose and time (10 μM, 24 hours). An increase in the cellular expression and secretion of apoB in HepG2 cells with lactacystin was observed, confirming its apoB degradation properties (FIG. 8A.). […]

B1: human resistin: recombinant lyophilized purified human resistin (Calbiochem); cysteine-rich cytokine, single 12 kDa band (protein)
chain: KTLCSMEEAINERIQEVAGSLIFRAISSIGLECQSVTSRGDLATCPRGFAVTGCTCGSACGSWDVRAETTCHCQCAGMDWTGARCCRVQP
**Q.** Which “increase in quantity of VLDL particles in a representative 100 cm^2 area” value (HepG2 cells [1]) does the source give for B1 here?
**A.** 10 fold

**Q.** And the “increase of hepatic apoB cellular protein expression and secretion versus control, untreated HepG2 cells” value (HepG2 cells [2]; 10 ng/mL resistin, 24 hours)?
**A.** ~100%

**Q.** And the “stimulation of apoB secretion compared with untreated cells” value (HepG2 cells [2]; 25 ng/mL resistin, 24 hours)?
**A.** approximately 250%

**Q.** What about the “effect on the stimulatory effect of oleate on hepatic cellular apoB expression and secretion” value (HepG2 cells [2]; 50 ng/mL resistin added to 100 μM oleate, 24 hours) of the same molecule?
**A.** doubled

**Q.** And the “apoB expression or secretion on addition to lactacystin” value (HepG2 cells [2]; 50 ng/mL resistin added to lactacystin 10 μM, 24 hours)?
**A.** did not further increase

**Q.** What about the “increase in cellular apoB protein expression versus untreated cells” value (HepG2 cells [2]; 50 ng/mL resistin, 24 hours) of the same molecule?
**A.** approximately 3500%

**Q.** What about the “increase in secreted apoB versus untreated cells” value (HepG2 cells [2]; 50 ng/mL resistin, 24 hours) of the same molecule?
**A.** 1000%

**Q.** And the “apoB secretion above untreated HepG2 cells” value (HepG2 cells [2]; 50 ng/mL resistin, after 48 hours, no restimulation)?
**A.** 100%

**Q.** And the “earliest time of increase in apoB protein secretion into HepG2 cell media” value (HepG2 cells [2]; 50 ng/mL resistin, time course)?
**A.** 4 h

**Q.** What about the “time of maximal cumulative effect on apoB protein expression in the media” value (HepG2 cells [2]; 50 ng/mL resistin, time course) of the same molecule?
**A.** 24 h

**Q.** What about the “increase in secretion of apoB protein by HepG2 cells” value (HepG2 cells [2]; 50 ng/mL, 24 hour) of the same molecule?
**A.** approximately 8 fold

**Q.** What about the “apoCI or CIII protein expression” value (HepG2 cells [2]; 50 ng/mL, versus untreated) of the same molecule?
**A.** no difference

**Q.** What about the “expression of secreted apoE” value (HepG2 cells [2]; 50 ng/mL, versus untreated) of the same molecule?
**A.** increase

**Q.** What about the “cellular apoB expression and secretion versus that produced by 50 ng/mL resistin” value (HepG2 cells [2]; 100 ng/mL resistin, 24 hours) of the same molecule?
**A.** reduced cellular apoB expression markedly

**Q.** And the MTP activity [3]?
**A.** significant increases

**Q.** What about the “cellular MTP protein expression” value [3] of the same molecule?
**A.** significant increases
